Consider 1 molecule from PMC9299759, “FBXW24 controls female meiotic prophase progression by regulating SYCP3 ubiquitination” (Clinical and Translational Medicine, 2022).

The target of this test is T1, FBXW24‐EGFP‐Strep II protein, purified from Sf9 (mouse, UniProt E9PXM9 1-466).
T1 construct: FBXW24 (F-box and WD-40 domain protein 24), mouse, gene ID 382106; also called FBXW24‐StrepII; in vitro purified FBXW24; source: Sf9 (Bac-to-bac baculovirus), purified (Ni-NTA); not shown: EGFP, C-terminal, kept; Strep II, C-terminal, kept
T1 sequence (looked up): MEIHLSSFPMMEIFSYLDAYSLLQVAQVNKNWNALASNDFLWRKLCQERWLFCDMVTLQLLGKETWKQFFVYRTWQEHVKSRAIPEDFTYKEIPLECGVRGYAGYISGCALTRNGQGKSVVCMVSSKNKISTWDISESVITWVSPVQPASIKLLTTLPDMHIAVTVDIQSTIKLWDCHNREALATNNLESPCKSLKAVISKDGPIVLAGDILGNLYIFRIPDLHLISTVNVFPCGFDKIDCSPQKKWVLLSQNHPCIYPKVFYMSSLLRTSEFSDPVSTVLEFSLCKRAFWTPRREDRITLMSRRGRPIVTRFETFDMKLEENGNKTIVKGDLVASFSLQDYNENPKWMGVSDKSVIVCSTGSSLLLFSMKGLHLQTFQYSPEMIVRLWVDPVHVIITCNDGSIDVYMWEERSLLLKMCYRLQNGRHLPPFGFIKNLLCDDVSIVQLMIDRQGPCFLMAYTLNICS
The test can be described thus: co-IP; co-IP between in vitro purified proteins; 1 μg SYCP3‐Flag protein and/or FBXW24‐StrepII protein in each reaction. The following applies: both partners purified.

B1: SYCP3‐TagRFP‐Flag protein, purified from Sf9 (natural protein, mouse, UniProt P70281 1-254, looked up)
chain: MLRGCGDSDSSPEPLSKHLKMVPGGRKHSGKSGKPPLVDQPKKAFDFEKDDKDLSGSEEDVADEKAPVIDKHGKKRSAGIIEDVGGEVQNMLEKFGADINKALLAKRKRIEMYTKASFKASNQKIEQIWKTQQEEIQKLNNEYSQQFMNVLQQWELDIQKFEEQGEKLSNLFRQQQKIFQQSRIVQSQRMFAMKQIHEQFIKSLEDVEKNNDNLFTGTQSELKKEMAMLQKKVMMETQQQEMANVRKSLQSMLF
notes: SYCP3, synaptonemal complex lateral element protein; The purified protein ran as several bands, and the upper bands carried ubiquitin; also called SYCP3‐Flag; in vitro purified SYCP3; source: Sf9 (Bac-to-bac baculovirus), purified (Ni-NTA); not shown: TagRFP, C-terminal, kept; Flag, C-terminal, kept
Turning to B1, the binding result was “binds”.
